Reference: US20200299373A1
Values belong to the binder of their own block, whether it stands above or below them.

Columns and labels:
[1] = molecular target: recombinant human FAM19A5 protein (His-tagged) (human) (UniProt Q7Z5A7); assay: two-site sandwich ELISA; capture antibody 2-13; biotinylated detection antibody P2-A03; antigen in ng/mL
[2] = molecular target: recombinant human FAM19A5 protein (His-tagged) (human) (UniProt Q7Z5A7); assay: two-site sandwich ELISA; capture antibody 13B4; S/N = O.D. at 10 ng/mL antigen / O.D. at 0 ng/mL; O.D. in column 0 printed 0.22
[3] = molecular target: recombinant human FAM19A5 protein (His-tagged) (human) (UniProt Q7Z5A7); assay: two-site sandwich ELISA; capture antibody 1-65; biotinylated detection antibody P2-A03; antigen in ng/mL
[4] = molecular target: recombinant human FAM19A5 protein (His-tagged) (human) (UniProt Q7Z5A7); assay: two-site sandwich ELISA; capture antibody P2-F11; S/N = O.D. at 10 ng/mL antigen / O.D. at 0 ng/mL; O.D. in column 0 printed 0.14
[5] = molecular target: recombinant human FAM19A5 protein (His-tagged) (human) (UniProt Q7Z5A7); assay: two-site sandwich ELISA; capture antibody 1-65; S/N = O.D. at 10 ng/mL antigen / O.D. at 0 ng/mL; O.D. in column 0 printed 0.15
[6] = molecular target: recombinant human FAM19A5 protein (His-tagged) (human) (UniProt Q7Z5A7); assay: ELISA on N'-Term His FAM19A5, fit of the titration (OD 492 nm); R2 printed 0.9746
[7] = molecular target: recombinant human FAM19A5 protein (His-tagged) (human) (UniProt Q7Z5A7); assay: two-site sandwich ELISA; capture antibody 2-13; S/N = O.D. at 10 ng/mL antigen / O.D. at 0 ng/mL; O.D. in column 0 printed 0.22
[8] = molecular target: recombinant human FAM19A5 protein (His-tagged) (human) (UniProt Q7Z5A7); assay: two-site sandwich ELISA; capture antibody P2-F11; biotinylated detection antibody P2-A03; antigen in ng/mL
[9] = molecular target: recombinant human FAM19A5 protein (His-tagged) (human) (UniProt Q7Z5A7); assay: two-site sandwich ELISA; capture antibody 3-2; biotinylated detection antibody P2-A03; antigen in ng/mL
[10] = molecular target: recombinant human FAM19A5 protein (His-tagged) (human) (UniProt Q7Z5A7); assay: two-site sandwich ELISA; capture antibody 13B4; biotinylated detection antibody P2-A03; antigen in ng/mL
[11] = molecular target: recombinant human FAM19A5 protein (His-tagged) (human) (UniProt Q7Z5A7); assay: two-site sandwich ELISA; capture antibody 3-2; S/N = O.D. at 10 ng/mL antigen / O.D. at 0 ng/mL; O.D. in column 0 printed 0.16
[12] = molecular target: recombinant human FAM19A5 protein (His-tagged) (human) (UniProt Q7Z5A7); assay: ELISA on N'-Term His FAM19A5, fit of the titration; R2 printed 0.9746
[13] = molecular target: recombinant human FAM19A5 protein (His-tagged) (human) (UniProt Q7Z5A7); assay: ELISA on coated FAM19A5, as in Example 6
F2-03-BSA (human) = molecular target: T1, F2-03-BSA (human); assay: ELISA on mutant F2 peptide-BSA #3; settings: remark: other sources report otherwise
T1 chain: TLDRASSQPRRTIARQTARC

[14] = molecular target: recombinant human FAM19A5 protein (His-tagged) (human) (UniProt Q7Z5A7); assay: ELISA on N'-Term His FAM19A5, fit of the titration (OD 492 nm); R2 printed 0.8703
[15] = molecular target: recombinant human FAM19A5 protein (His-tagged) (human) (UniProt Q7Z5A7); assay: ELISA on N'-Term His FAM19A5, fit of the titration (OD 492 nm); R2 printed 0.9692
[16] = molecular target: recombinant human FAM19A5 protein (His-tagged) (human) (UniProt Q7Z5A7); assay: two-site sandwich ELISA; capture antibody 13B4; S/N = O.D. at 10 ng/mL antigen / O.D. at 0 ng/mL; O.D. in column 0 printed 0.18
[17] = molecular target: recombinant human FAM19A5 protein (His-tagged) (human) (UniProt Q7Z5A7); assay: two-site sandwich ELISA; capture antibody 1-65; S/N = O.D. at 10 ng/mL antigen / O.D. at 0 ng/mL; O.D. in column 0 printed 0.12
[18] = molecular target: recombinant human FAM19A5 protein (His-tagged) (human) (UniProt Q7Z5A7); assay: two-site sandwich ELISA; capture antibody 1-65; biotinylated detection antibody P2-F11; antigen in ng/mL
[19] = molecular target: recombinant human FAM19A5 protein (His-tagged) (human) (UniProt Q7Z5A7); assay: two-site sandwich ELISA; capture antibody 3-2; biotinylated detection antibody P2-F11; antigen in ng/mL
[20] = molecular target: recombinant human FAM19A5 protein (His-tagged) (human) (UniProt Q7Z5A7); assay: two-site sandwich ELISA; capture antibody 13B4; biotinylated detection antibody P2-F11; antigen in ng/mL
[21] = molecular target: recombinant human FAM19A5 protein (His-tagged) (human) (UniProt Q7Z5A7); assay: ELISA on N'-Term His FAM19A5, fit of the titration; R2 printed 0.9692
[22] = molecular target: recombinant human FAM19A5 protein (His-tagged) (human) (UniProt Q7Z5A7); assay: two-site sandwich ELISA; capture antibody P2-A03; biotinylated detection antibody P2-F11; antigen in ng/mL
[23] = molecular target: recombinant human FAM19A5 protein (His-tagged) (human) (UniProt Q7Z5A7); assay: two-site sandwich ELISA; capture antibody 3-2; S/N = O.D. at 10 ng/mL antigen / O.D. at 0 ng/mL; O.D. in column 0 printed 0.13
[24] = molecular target: recombinant human FAM19A5 protein (His-tagged) (human) (UniProt Q7Z5A7); assay: two-site sandwich ELISA; capture antibody 2-13; S/N = O.D. at 10 ng/mL antigen / O.D. at 0 ng/mL; O.D. in column 0 printed 0.29
[25] = molecular target: recombinant human FAM19A5 protein (His-tagged) (human) (UniProt Q7Z5A7); assay: two-site sandwich ELISA; capture antibody 2-13; biotinylated detection antibody P2-F11; antigen in ng/mL
[26] = molecular target: recombinant human FAM19A5 protein (His-tagged) (human) (UniProt Q7Z5A7); assay: two-site sandwich ELISA; capture antibody P2-A03; S/N = O.D. at 10 ng/mL antigen / O.D. at 0 ng/mL; O.D. in column 0 printed 0.09

O.D., antigen 100 [1]: 1.88
O.D., antigen column 10 [1]: 1.72
S/N [2]: 1
O.D., antigen 100 [3]: 0.16
O.D., antigen column 10 [3]: 0.15
S/N [4]: 1.1
S/N [5]: 1
Bmax [6]: 3.37
S/N [7]: 7.8
O.D., antigen 100 [8]: 0.15
O.D., antigen column 10 [8]: 0.15
O.D., antigen 100 [9]: 1.91
O.D., antigen column 10 [9]: 1.66
O.D., antigen 100 [10]: 0.27
O.D., antigen column 10 [10]: 0.22
S/N [11]: 10
Kd [12]: 610 pM
B1: anti-FAM19A5 antibody P2-A03 (antibody, V domains shown)
VH: QSVEESGGRLVTPGTPLTLTCTVSGFSLNNYDMSWVRQAPGKGLEYIGFMDTDGSAYYATWAKGRFTISRTSTTVDLKMTSPTTEDTATYFCARRGSSYYGGIDIWGPGTPVTVSL
VL: ELDLTQTPASVSEPVGGTVTIKCQASQSIGGNLAWYQQKPGQPPKLLIYRASTLASGVPSRFKGSGSGTDFTLTISDLECADAATYYCQSPAYDPAAYVGNAFGGGTELEILR
modifications: Biotinylated when used as detection antibody in FIG. 6B.

Kd [13]: 170 pM
O.D (492nm) (F2-03-BSA (human)): 0.055
Bmax [14]: 2.94
B2: anti-FAM19A5 antibody 1-28 (antibody, V domains shown)
VH: AVTLDESGGGLQTPGGALSLVCKASGFDFSDYGMGWVRQAPGKGLEWVAAIRSDGSNPSYGSAVKGRATISKDNGRSTVRLQLNNLRAEDTATYYCAKDGNGYCALDAYRSGGYSCGVYPGSIDAWGHGTEVIVSS
VL: ALTQPSSVSANLEGTVEITCSGSGYGYGWYQQKSPGSAPVTVIYQNDKRPSDIPSRFSGSKSGSTGTLTITGVQVEDEAVYYCGSEDSSTLAGIFGAGTTLTVL

Bmax [15]: 3.26
S/N [16]: 1
S/N [17]: 1.7
O.D., antigen 100 [18]: 1.25
O.D., antigen column 10 [18]: 0.2
O.D., antigen 100 [19]: 2.02
O.D., antigen column 10 [19]: 1.81
O.D., antigen 100 [20]: 0.2
O.D., antigen column 10 [20]: 0.18
Kd [21]: 410 pM
O.D., antigen 100 [22]: 0.09
O.D., antigen column 10 [22]: 0.09
S/N [23]: 13.9
S/N [24]: 7
O.D., antigen 100 [25]: 1.83
O.D., antigen column 10 [25]: 2.04
S/N [26]: 1
B3: anti-FAM19A5 antibody P2-F11 (antibody, V domains shown)
VH: QEQLVESGGRLVTPGTTLTLTCTVSGFSLSSYGVSWVRQAPGKGLEWIGYIANNYNPHYASWAKGRFTISKTSSTTVDLKMTSLTTEDTATYFCARDNYGMDPWGPGTLVTVSS
VL: ELDLTQTPSSVSAAVGGTVTINCQASQSVYNNKNLAWYQQKPGQPPKLLIYAASTLASGVSSRFKGSGSGTQFTLTISDVQCDDAATYYCQGEFSCSSADCNAFGGGTELEILR
modifications: Biotinylated when used as detection antibody in FIG. 6B.
